This data set deals with the molecule itself. In words: self-interaction chromatography; the same protein immobilised on Toyopearl particles (surface coverage ~30-40%) and injected (5-15 mg/mL, 10 uL, 0.5 mL/min); b2 from first-moment retention; increasing ionic strength of different sodium salts; 20 mM sodium phosphate pH 7.0 for lactoferrin, catalase and con A, 50 mM sodium acetate pH 4.5 for lysozyme.

B1: catalase from bovine liver (enzyme, UniProt P00432 1-527, looked up)
chain: MADNRDPASDQMKHWKEQRAAQKPDVLTTGGGNPVGDKLNSLTVGPRGPLLVQDVVFTDEMAHFDRERIPERVVHAKGAGAFGYFEVTHDITRYSKAKVFEHIGKRTPIAVRFSTVAGESGSADTVRDPRGFAVKFYTEDGNWDLVGNNTPIFFIRDALLFPSFIHSQKRNPQTHLKDPDMVWDFWSLRPESLHQVSFLFSDRGIPDGHRHMNGYGSHTFKLVNANGEAVYCKFHYKTDQGIKNLSVEDAARLAHEDPDYGLRDLFNAIATGNYPSWTLYIQVMTFSEAEIFPFNPFDLTKVWPHGDYPLIPVGKLVLNRNPVNYFAEVEQLAFDPSNMPPGIEPSPDKMLQGRLFAYPDTHRHRLGPNYLQIPVNCPYRARVANYQRDGPMCMMDNQGGAPNYYPNSFSAPEHQPSALEHRTHFSGDVQRFNSANDDNVTQVRTFYLKVLNEEQRKRLCENIAGHLKDAQLFIQKKAVKNFSDVHPEYGSRIQALLDKYNEEKPKNAVHTYVQHGSHLSAREKANL
notes: catalase from bovine liver, MW 250 kD, pI 5.4; Immobilised copy is coupled to Toyopearl AF-Amino-650M particles with EDC and NHS; source: bought: Sigma Aldrich (C9322)
B1: the binding result was “binds”.

(Values after publication PMC4644993, “The second virial coefficient as a predictor of protein aggregation propensity: A self-interaction chromatography study” (European Journal of Pharmaceutics and Biopharmaceutics, 2015).)
